Measurements reported in patent publication US20250320281A1.

Legend:
Assay in all cases: cell-based or functional assay
[1] = biological target: HIV-1 Env of isolate 92BR020 (clade B) on pseudovirus (HIV-1)
[2] = biological target: HIV-1 Env of isolate 92RW020 (clade A) on pseudovirus (HIV-1)
[3] = biological target: HIV-1 Env of isolate 93IN905 (clade C) on pseudovirus (HIV-1)
[4] = biological target: HIV-1 Env of isolate 93UG077 (clade A) on pseudovirus (HIV-1)
[5] = biological target: HIV-1 Env of isolate 94UG103 (clade A) on pseudovirus (HIV-1)
[6] = biological target: HIV-1 Env of isolate APV13 (clade B) on pseudovirus (HIV-1)
[7] = biological target: HIV-1 Env of isolate APV17 (clade B) on pseudovirus (HIV-1)
[8] = biological target: HIV-1 Env of isolate APV6 (clade B) on pseudovirus (HIV-1)
[9] = biological target: HIV-1 Env of isolate JRCSF (clade B) on pseudovirus (HIV-1) (UniProt P20871)
[10] = biological target: HIV-1 Env of isolate JRFL (clade B) on pseudovirus (HIV-1)
[11] = biological target: HIV-1 Env of isolate MGRM-C-026 (clade C) on pseudovirus (HIV-1)
[12] = biological target: HIV-1 Env of isolate MGRM-C-027 (clade C) on pseudovirus (HIV-1)
[13] = biological target: HIV-1 Env of isolate MGRM-D-001 (clade D) on pseudovirus (HIV-1)
[14] = biological target: HIV-1 Env of isolate MGRM-D-018 (clade D) on pseudovirus (HIV-1)

For “PGT-121 (4838_L06; 4873_E03) human monoclonal anti-HIV antibody”, the IC80 (pseudovirus neutralization) [1] was 0.0532 µg/mL, the IC90 (pseudovirus neutralization) [1] was 0.101 µg/mL and the IC80 (pseudovirus neutralization) [2] was 0.0188 µg/mL. The IC90 (pseudovirus neutralization) [2] was 0.0361 µg/mL, the IC95 (pseudovirus neutralization) [2] was 0.0671 µg/mL and the IC80 (pseudovirus neutralization) [3] was 0.0302 µg/mL. For the same substance, the IC90 (pseudovirus neutralization) [3] was 0.0645 µg/mL, the IC90 (pseudovirus neutralization) [4] was 0.369 µg/mL and the IC95 (pseudovirus neutralization) [4] was 0.74 µg/mL. The IC80 (pseudovirus neutralization) [5] was 8.85 µg/mL, the IC80 (pseudovirus neutralization) [6] was 1.31 µg/mL and the IC90 (pseudovirus neutralization) [6] was 2.8 µg/mL. The IC95 (pseudovirus neutralization) [6] was 5.15 µg/mL, the IC80 (pseudovirus neutralization) [7] was 0.371 µg/mL and the IC90 (pseudovirus neutralization) [7] was 0.799 µg/mL. The IC95 (pseudovirus neutralization) [7] was 1.55 µg/mL, the IC80 (pseudovirus neutralization) [8] was 0.145 µg/mL and the IC95 (pseudovirus neutralization) [8] was 0.569 µg/mL. The IC90 (pseudovirus neutralization) [9] was 0.223 µg/mL, the IC95 (pseudovirus neutralization) [9] was 0.417 µg/mL and the IC80 (pseudovirus neutralization) [10] was 0.0806 µg/mL. For the same substance, the IC90 (pseudovirus neutralization) [10] was 0.151 µg/mL, the IC95 (pseudovirus neutralization) [10] was 0.267 µg/mL and the IC95 (pseudovirus neutralization) [11] was 0.0687 µg/mL. The IC80 (pseudovirus neutralization) [12] was 0.0829 µg/mL, the IC90 (pseudovirus neutralization) [12] was 0.374 µg/mL and the IC95 (pseudovirus neutralization) [12] was 3.14 µg/mL. The IC80 (pseudovirus neutralization) [13] was 3.29 µg/mL, the IC90 (pseudovirus neutralization) [13] was 6.26 µg/mL and the IC95 (pseudovirus neutralization) [13] was 9.39 µg/mL. The IC80 (pseudovirus neutralization) [14] was 0.0231 µg/mL, the IC90 (pseudovirus neutralization) [14] was 0.0414 µg/mL and the IC95 (pseudovirus neutralization) [14] was 0.0715 µg/mL.
